Paper PMC4771647, “Improving the thermostability and stress tolerance of an archaeon hyperthermophilic superoxide dismutase by fusion with a unique N-terminal domain” (SpringerPlus, 2016)
Values joined by “and” are separate entries in the source; they are usually repeats but may differ in a detail not shown here. Identical values can stand only once.

Experiments:
[1] = molecular target: rSODSs, fusion of the N-terminal domain (NTD) of SOD NG2215 of Geobacillus thermodenitrificans NG80-2 with SODSs (Geobacillus thermodenitrificans NG80-2 | Sulfolobus solfataricus); experiment: AUC; sedimentation velocity, interference data, 36,000 rpm, An-60 Ti rotor, 4 °C; 50 mM potassium phosphate buffer plus 150 mM NaCl, pH 8.0; continuous c(s) distribution (SEDFIT)
[2] = molecular target: the molecule itself; experiment: as above

| stoichiometry N [1] | Molecule | stoichiometry N [2] |
| --- | --- | --- |
| 4 and 2 | rSODSs, fusion of the N-terminal domain (NTD) of SOD NG2215 of Geobacillus thermodenitrificans NG80-2 with SODSs (enzyme) |  |
|  | superoxide dismutase from the archaeon Sulfolobus solfataricus (SODSs) (enzyme, UniProt P80857 1-211, looked up, Fe superoxide dismutase (SODSs) of Sulfolobus solfataricus; gene synthesised into pET-28a (pET-SODSs); expected size 24.2 kDa; Tetramer by analytical ultracentrifugation (major peak), with small quantities of dimers; also called Fe-SODSs; native SODSs) MTLQIQFKKYELPPLPYKIDALEPYISKDIIDVHYNGHHKGYVNGANSLLERLEKVVKGDLQTGQYDIQGIIRGLTFNINGHKLHALYWENMAPSGKGGGKPGGALADLINKQYGSFDRFKQVFTETANSLPGTGWAVLYYDTESGNLQIMTFENHFQNHIAEIPIILILDEFEHAYYLQYKNKRADYVNAWWNVVNWDAAEKKLQKYLTK | 4 and 2 |
